Residue numbers refer to the chain shown, from its start.
B1: 3.1.9-1 (antibody, human IgG1, kappa, V domains shown)
VH: QVQLLQSGAAVTKPGASVRVSCEASGYNIRDYFIHWWRQAPGQGLQWVGWINPKTGQPNNPRQFQGRVSLTRHASWDFDTFSFYMDLKALRSDDTAVYFCARQRSDYWDFDVWGSGTQVTVSS
VL: DIQMTQSPSSLSARVGDTATITCQANGYLNWYQQRRGKAPKLLIYDGSKLERGVPARFSGRRWGQEYNLTINNLQPEDVATYFCQVYEFFGPGTRLDLKR
B2: 2.3.13-1 (antibody, human IgG1, kappa, V domains shown)
VH: B1 VH with Q3H, L5S, L90V, V97I
VL: B1 VL with T18R, R61S, N68I, N72S, N73S
B3: 3.1.17-1 (antibody, human IgG1, kappa, V domains shown)
VH: B1 VH
VL: B1 VL with N68H
B4: 2.3.12-1 (antibody, human IgG1, kappa, V domains shown)
VH: B1 VH with Q3H, L5S, L90V, V97I
VL: B1 VL with N68I
B5: 3.1.18-1 (antibody, human IgG1, kappa, V domains shown)
VH: B1 VH
VL: B1 VL with T18R, R61S, N68H, N72S, N73S
B6: 2.2.18-1 (antibody, human IgG1, kappa, V domains shown)
VH: B1 VH with Q3H, L5S, N28K, Y32H, L90V, V97I
VL: B1 VL with T18R, R61S, N68H, N72S, N73S
B7: 2.2.13-1 (antibody, human IgG1, kappa, V domains shown)
VH: B1 VH with Q3H, L5S, N28K, Y32H, L90V, V97I
VL: B1 VL with T18R, R61S, N68I, N72S, N73S
B8: 1.1.118-1 (antibody, human IgG1, kappa, V domains shown)
VH: B1 VH
VL: B1 VL with R14S, T18R, A56S, R61S, N68I, N72S, N73S, V79I
B9: 3.1.12-1 (antibody, human IgG1, kappa, V domains shown)
VH: B1 VH
VL: B1 VL with N68I
B10: 2.2.17-1 (antibody, human IgG1, kappa, V domains shown)
VH: B1 VH with Q3H, L5S, N28K, Y32H, L90V, V97I
VL: B1 VL with N68H
B11: 2.2.15-1 (antibody, human IgG1, kappa, V domains shown)
VH: B1 VH with Q3H, L5S, N28K, Y32H, L90V, V97I
VL: B1 VL with N68T
B12: 1.1.104-1 (antibody, human IgG1, kappa, V domains shown)
VH: B1 VH
VL: B1 VL with R14S, A56S, N68T, V79I
B13: 1.1.117-1 (antibody, human IgG1, kappa, V domains shown)
VH: B1 VH
VL: B1 VL with R14S, A56S, N68I, V79I
B14: 2.2.12-1 (antibody, human IgG1, kappa, V domains shown)
VH: B1 VH with Q3H, L5S, N28K, Y32H, L90V, V97I
VL: B1 VL with N68I
B15: 2.2.9-1 (antibody, human IgG1, kappa, V domains shown)
VH: B1 VH with Q3H, L5S, N28K, Y32H, L90V, V97I
VL: B1 VL
B16: 2.3.9-1 (antibody, human IgG1, kappa, V domains shown)
VH: B1 VH with Q3H, L5S, L90V, V97I
VL: B1 VL
B17: 2.3.15-1 (antibody, human IgG1, kappa, V domains shown)
VH: B1 VH with Q3H, L5S, L90V, V97I
VL: B1 VL with N68T
B18: 3.1.13-1 (antibody, human IgG1, kappa, V domains shown)
VH: B1 VH
VL: B1 VL with T18R, R61S, N68I, N72S, N73S
B19: 3.1.7-1 (antibody, human IgG1, kappa, V domains shown)
VH: B1 VH
VL: B1 VL with T18R, R61S, N68T, N72S, N73S
B20: 1.1.102-1 (antibody, human IgG1, kappa, V domains shown)
VH: B1 VH
VL: B1 VL with R14S, T18R, A56S, R61S, N68H, N72S, N73S, V79I
B21: 2.2.7-1 (antibody, human IgG1, kappa, V domains shown)
VH: B1 VH with Q3H, L5S, N28K, Y32H, L90V, V97I
VL: B1 VL with T18R, R61S, N68T, N72S, N73S
B22: 3.1.15-1 (antibody, human IgG1, kappa, V domains shown)
VH: B1 VH
VL: B1 VL with N68T
B23: 2.3.7-1 (antibody, human IgG1, kappa, V domains shown)
VH: B1 VH with Q3H, L5S, L90V, V97I
VL: B1 VL with T18R, R61S, N68T, N72S, N73S
B24: 2.3.17-1 (antibody, human IgG1, kappa, V domains shown)
VH: B1 VH with Q3H, L5S, L90V, V97I
VL: B1 VL with N68H
B25: 1.1.78-1 (antibody, human IgG1, kappa, V domains shown)
VH: B1 VH
VL: B1 VL with R14S, A56S, N68H, V79I
B26: 1.1.119-1 (antibody, human IgG1, kappa, V domains shown)
VH: B1 VH
VL: B1 VL with R14S, T18R, A56S, R61S, N68T, N72S, N73S, V79I

target: HIV-1 envelope glycoprotein gp120 of virus 7141 (HIV-1); assay: cell-based or functional assay

Binder	neutralization IC50
B1	4.35 µg/mL
B2	15.5 µg/mL
B3	25.5 µg/mL
B4	23.8 µg/mL
B5	> 9.8 µg/mL
B6	5.04 µg/mL
B7	3.8 µg/mL
B8	20.2 µg/mL
B9	24.5 µg/mL
B10	6.28 µg/mL
B11	1.99 µg/mL
B12	5.13 µg/mL
B13	16.9 µg/mL
B14	7.08 µg/mL
B15	1.75 µg/mL
B16	2.56 µg/mL
B17	5.93 µg/mL
B18	13.2 µg/mL
B19	5.65 µg/mL
B20	22.7 µg/mL
B21	1.58 µg/mL
B22	9.1 µg/mL
B23	5.08 µg/mL
B24	31.3 µg/mL
B25	29.5 µg/mL
B26	6.92 µg/mL

target: HIV-1 envelope glycoprotein gp120 of virus 92US727 (HIV-1); assay: cell-based or functional assay

Binder	neutralization IC50
B1	3.54 µg/mL
B2	> 38 µg/mL
B3	> 50 µg/mL
B4	> 50 µg/mL
B5	> 9.8 µg/mL
B6	> 34 µg/mL
B7	> 50 µg/mL
B8	> 50 µg/mL
B9	> 41 µg/mL
B10	> 50 µg/mL
B11	> 50 µg/mL
B12	> 50 µg/mL
B13	> 50 µg/mL
B14	> 50 µg/mL
B15	13.1 µg/mL
B16	11.1 µg/mL
B17	> 50 µg/mL
B18	> 21 µg/mL
B19	> 50 µg/mL
B20	> 50 µg/mL
B21	> 50 µg/mL
B22	> 33 µg/mL
B23	> 50 µg/mL
B24	> 50 µg/mL
B25	> 50 µg/mL
B26	> 50 µg/mL

target: HIV-1 envelope glycoprotein gp120 of virus VS001 (HIV-1); assay: cell-based or functional assay

Binder	neutralization IC50
B1	0.16 µg/mL
B2	1.5 µg/mL
B3	2.21 µg/mL
B4	1.92 µg/mL
B5	3.52 µg/mL
B6	2.51 µg/mL
B7	1.48 µg/mL
B8	2.4 µg/mL
B9	2.41 µg/mL
B10	4.38 µg/mL
B11	0.37 µg/mL
B12	0.45 µg/mL
B13	3.03 µg/mL
B14	2.1 µg/mL
B15	0.15 µg/mL
B16	0.22 µg/mL
B17	0.85 µg/mL
B18	0.56 µg/mL
B19	0.3 µg/mL
B20	3 µg/mL
B21	0.27 µg/mL
B22	0.49 µg/mL
B23	0.47 µg/mL
B24	4.54 µg/mL
B25	3.3 µg/mL
B26	0.39 µg/mL
